Experimental data taken from article PMC4483278.

Biological target: Bax (human (endogenous in U-2 OS and Sa OS)) (UniProt Q07812)
Assay: co-IP

Sequence of Ku70 (P12956 whole entry): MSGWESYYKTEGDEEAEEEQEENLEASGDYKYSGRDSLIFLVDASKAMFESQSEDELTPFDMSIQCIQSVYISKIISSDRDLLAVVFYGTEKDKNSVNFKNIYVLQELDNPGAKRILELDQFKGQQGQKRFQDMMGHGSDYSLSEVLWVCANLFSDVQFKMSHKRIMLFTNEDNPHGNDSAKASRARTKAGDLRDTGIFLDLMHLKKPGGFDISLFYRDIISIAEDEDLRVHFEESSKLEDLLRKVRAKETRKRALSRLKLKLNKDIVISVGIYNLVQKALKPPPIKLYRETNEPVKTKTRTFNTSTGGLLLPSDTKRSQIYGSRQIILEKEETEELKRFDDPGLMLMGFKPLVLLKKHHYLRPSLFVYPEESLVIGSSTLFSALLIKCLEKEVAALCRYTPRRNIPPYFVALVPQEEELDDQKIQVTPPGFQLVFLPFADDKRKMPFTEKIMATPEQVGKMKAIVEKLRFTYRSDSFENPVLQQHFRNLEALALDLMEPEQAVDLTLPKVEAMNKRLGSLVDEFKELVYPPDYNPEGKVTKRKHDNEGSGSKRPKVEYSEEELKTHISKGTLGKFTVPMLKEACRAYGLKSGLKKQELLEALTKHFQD
Sequence of Bax (human (endogenous in U-2 OS and Sa OS)) (Q07812 whole entry): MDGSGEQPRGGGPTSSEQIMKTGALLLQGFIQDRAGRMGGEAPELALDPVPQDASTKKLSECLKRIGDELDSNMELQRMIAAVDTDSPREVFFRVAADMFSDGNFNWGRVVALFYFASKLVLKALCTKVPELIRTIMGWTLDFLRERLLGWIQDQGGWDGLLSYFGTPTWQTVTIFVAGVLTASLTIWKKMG

Ku70 (from UniProt P12956 1-609) (natural protein)
percent of Ku70 remaining bound to Bax after sCLU depletion: < 25%
